Experiment: soluble on expression in E. coli; label from the status in PepcDB or PDB records

Soluble on expression in E. coli, not soluble:
MGSDKIHHHHHHMTLTTKTIHVIGASFAGLAFVDKYKDLNPDSQIILIDKESCPNYIPNGINQLFRGDIQDLSDAMWGRACLAAQIESNHRFIQAEVLAIEAPSNTLLLKDSQGRVFEEGYETLVCAMGASPQSHYIETSQTNKVLVTKYYEESQASLKLIEASQEVLVIGAGLIGLDLAYSLSLQGKRVKLIEAAERPDFYQTDAELIAPVMAEMSTHHVTFINNKRVTAIHEIEGKVVAHTEQGDTFQGDLAILAINFRPNTHLLQGQVACALDKTILVNENLQTSQANIYAIGDMVSLHFGILGMDYYTPLINQAMKTGQALALHLAGYPIPPLQTVKVLGSSHFDYYRASVGVTEEEAELYMDTCSYLYQNGDSKNLFWLKLIARKTDGILIGAQLLSKTNALVIANQLGQALALKVTDADLAFQDFLFLQGHSDLAYHLHEACLKLFEKRLRHED, MGSDKIHHHHHHMTMIRVNDVLSVGPQPSISEIRSLAGHGFAGMINARPDGEEASQPGNAAEREAAGHADVPYTFIPVTMPTITEADVRAFQRAMADAGGPVFAHCKTGTRALTLYALGEALDGRMSSQDMAALGQKLGIDLSAASRWFEAHRQLRPDVKGFFDPRTGSVQYVVSDPDTRKCAIVDPVLDFDEKSGATTTRNADAMLSYIAENGLSVEWILDTHPHADHFSAAQYLKEKTGAPTAIGAPVVDVQRLWRGIYNWPELRVDGSQWDRLFSDGDTFKVGSMAARVMFSPGHTLASITYVIGNAAFVHDTIFMPDSGTARADFPGGDARVLWKSIQKILDLPDETRLFTGHDYQPGGRAPKWESTVGEQKRANAHLAGVNEEAFAGLRVARDRTLPMPKLILHALQVNIQAGRLPEPEPNGTRYLKFPLDALQGAVW, MGSDKIHHHHHHMTMQQVLDGTATFMEHLGLNEEPLGVYYSDDKPENAFGPKTGVPISRELEESGKLDMREVMKSFTCVMGSIWLARKKHGAAFISQTEYGCPGGVYYCAMLQPHLRFIEHYVSTGFEGTPLQGERYMPDPDAMRNFILRVAPRKAPARYCIFKPLSLFSAQEKPEFIIFFARPEVLTGLFTQTVFTTGDMDCVASPFGAGCTNILGWPLYYKEKGIEKAVIGGFDPSARKFMKTDELTFTVPLSLYEKMLAALPESMFTHETDWKNVRKKVARSAKAWRVRRPGAKQPPPSTCPITY, MGSDKIHHHHHHMTPIRLIIVGLGARALTWIKVARANPDVEIVALCDPDPSARSAAARQFPKLPIGKDITDIIGTAADAVLLATPPRGREAQIEACCTHGLAVLAEKPLSDSVVTAARFVEMAEQAGVPLIVGLNFRYLAVTQEKRRLLADGAIGTPEFGRFIYERWRDGTQDWLNSYPLTMDHPMLWEQSIHHFDLMRYVHGVEPEYVQAHTANPSWTMYEGDTNVSALIGFKGGFHITYQGTWQSGHEPMNFNWRTDGSEGIVVQRAMFGDLAWAKRMEPELTPVDLPAHEAWITDAAALLDRFVAILRGATPECTGRDHLQSLFMLEACILASARRATVTIDEVRALTTPKETS, MGSDKIHHHHHHMTPNPRHWARELWQRSRDRGLQTHIDVLVDATGLDDYPLLAEHARQSDPPALFKLLEQTPEAALADEGPLLLRLEDGHAAWLDELLERIDCRRHLMLLFSPWPLPRLGEHLRSCTQAEWNQGRSSGVLRFYEPGLFMAVSDMLDPRQSCYLHAPVSSWHWLDRDGRPRALAGHYQAHETPPLQAALRLEAHQVAALRAWSEAEAYRREYFVLPREHGLGSQESLLQHLVQAHLAADRQGLQDFDQRDAFVAQWLREQTPGPGFSPAGTSRA, MGSDKIHHHHHHMTPRDTVAAFPATSQQSAIRATPFVWIEPANIPPRKWLYGHHLIRGYVSLTVAPGATGKSSLLIADALAMSANRNLVGTPVYAGRPLRVWIWNLEDPIDELQRRITATAIQYQIHSTDIEGRLFVDSGRDQSLCIARQGHNGIEILDPVIDALQAEILAREIDVLIVDPFVSSHQVSENDNGAIDAVAKKWGAIADRTGCAIELVHHLRKLPHGIEATAESARGAVSLVAAARSVRVLNRMAKEEALQCGLTSNKGHFKVSDDKNNLAAATDSENWFRMESVQLDNGDNVGVVVQWDKPDPFDGITPRHLLAVQKAIDGKDYRQNVQATDWVGQHIGHIVGLDPAKPHDKNRLKSLIKTWINNGALIADEIMNKKGRPTPVIAVGKWVTAAEVAATNVADDEFPLG, MGSDKIHHHHHHMTQKESIRLFEERKVRAIWDDEQEEWYFSIVDVISILTDSPNPRKYWSVLKTRLKREGSELTTNCSQLKMQAADGKKYLTDVANTEQLFRLIQSVPSPKAEPFKLWIAQVAKERLDQMQDPELSIEQAMADYKRLGYSDNWINQRLKSIEIRKDLTDEWKKRGLEEGLHFATLTDIIYKSWSDMTSKEYKRFKGLRKENLRDNMTNKELVLNMLAELSTKEISEASEPDTFSEHINVAQQGGEVARNARLELEAKTGKSVISPLNAQKIISLKKGENERDV, MGSDKIHHHHHHMTQKLPRQATASEESLMRIFTVPEDAESTLSIIEQKLSEDLAGFLGDSIAALEKPLSEIETDFQAFKIPTQPRFVSDYTDEIMQNLVAHSVHTSAPSFIGHMTSALPYFVLPLSKMMVGLNQNLVKIETSKAFTPLERQVLGMMHHLIYAQNTDFYQSWMHSANHSLGAFCSGGTVANITALWIARNQLLKADGEFKGVTREGLLKALRYYGYDDLAILVSERGHYSLGKAVDLLGIGRDNIISIPTDSHNKVDIAKMRKAALELARKNIKVLAIVGVAGTTETGNVDPLIELAALAKELNCHFHVDAAWGGASLLSNKYRHLLAGIELADSVTIDAHKQMYVPMGAGMVLFKNPEFAHAIAHHAEYILRRGSKDLGSQTLEGSRPGMAMLVHACLQIIGLDGYEILINNSIEKARYFAEQIKAHRDFELVTEPELCLLTYRYVPAKVQAAMQVAIEQGDTAKLARFNELLDGLTQFIQKHQREQGKSFVSRTRISPARYFRQATVVFRVVLANPLTSHDILNQVLVEQSEIAALDKEFLPALLAMVAE, MGSDKIHHHHHHMTSELETAANPEKLKRIVIEPVTRVEGHGKVTLLLDEDNRVQQARFHIVEFRGFEKFIQGRPYTEVPVLVQRLCGICPVSHNLAASKAMDVIVGAAPPPAADKLRRLMHMGQMLQSHALHFFHLSSPDLLFGFDAEVGKRNIAGLAMQFPDIARQGVGLRKFGQEVIRMTSGKRVHGTGVIPGGMSKNLSREDRDWLLAEIDQVVRWSQQAVNLIKRLYGEHKDFYNNFGYYRSSFMSLVREDGAMDLYHGNLRAIDDKGQTIFDHVDYSHYGDYIHEEVKSWSYMKFPFIRSQGREEGWYRVGPLARVNNCDFIPTPLAEAERKIFKEYDGGRASHATLSFHWARMIEMLHSAEAIRELLHDDDLLSDDLVNIGERQLRGVGVIEAPRGTLIHHYRINEDEQIVRANLIVATTHNNQAMNEAIRQVSLQYLDGQQLTEGLLNYIEVAIRAFDPCLSCATHALGKMPLEVELVDAEGARVKRIIKDSDGGYRA, MGSDKIHHHHHHMTSMEFKIKRDGLALQARLETPAAPSSTLVILMHGFTADMGYDTTQFVPQLAQALVAHGLAVLRFDFNGHGCSEGRFQDMTVINEIADAKAVLDEALTLHYDHIVLAGHSQGGVVASMLAGYYPDVVDKLILMAPAATLKSDAQQGVLQGATYDPQHIPAYLNIRDGLKVGGFYLRTAQQLPIYEVAQQYAGSVTLIHVTADTVVSPQASEKYHEVYQHSQLHWVQDGGHRFSGDARATAIQLALAAFK, MGSDKIHHHHHHMTSPNTTQGAADPIQSYLNQGLRNYWYPVAPSWQVGDAPVGITRLGDQIVLWRDKEGKVRALEDRCPHRGARLSLGWNLGGSVACWYHGIEVDGGGTVTKVPAVSNCPLEGQKCVKSYPVEEHAGAIFLWFGDDAHKEPAPLVLPEELVGEEYASFLCMSHWKCNYQYAIDNVMDPMHGAYLHATSHSMAEGDKQADMRVRKTETGLMFEKIGQRDVNFDWVELGETGCLWMRLAIPYKKKFGPGGNFGIIGFAVPVDEDNCQVYFWRTRKVQGWQRDAWRFMYRNRLEGLHWAVLEQDRYVLESMAPNARDHEFLYQHDVGMTRVRRMLRQRAQQHFADLDAHRAQAVSATPAAAEAGHSHA, MGSDKIHHHHHHMTSTLPVPEPHQSDSANTDANSLSWEEELDSAIFSFEDIQTELNYKQAQTALRNLVANLDLTPQEKTGLETEIADLETMLGKLDRMVVQIAAFGMVGRGKSSLLNSLVGQTVFETGPLHGVTRTAQTVNWSISEEAIGETERALRVTLPGVGQSQVKLIDTPGLDEVDGATRAVLAEQIAKQADLILFVISGDMTKLEYAALSQLREAGKPIILVFNKVDQYPEADRMAIYHKIRDERVRELLTPLEIVMAAASPLVKTAIRRPDGTRGIQLRTGNAQVEELKLKILEILHREGKALVALNTMLYADVVNEQLIERKLMIREQNANQLIWKAVMTKALAIALNPVTVVDILSSVVIDIALILGLSKLYGFSMTEAGAVQLLQKIALSMGGIGASELLANLGLSGLKTLLGISATATAGVALGPYISVAVTQGGVAGVSSYGIGQVTKVYLANGATWGPDGPKAVINRILANLDETSILNRIKDELLHKVRLRK, MGSDKIHHHHHHMTTATPLLSLQKPTPIALAEIEESLSQLWANQQHSGAGALVSRAATFSIVVYEPEEFQQILAALGLYHGHLDGLHGPMTRAAIAQAQTQFGLPSTGRPDSATFKALRQAYQALKHSPSLTNQDLRGAVLSNVIATQNPCRIVSLCPTLEGDRPISAEVSAYCPITSAKQASLICCEAVTLRGSQAEMEAIGTFVSELLLPGLPRYVWWKATPNPEQLLFQQLANSCNCMIFDSSYFSDPEAEFLRFQDLIDQETYIADLNWHRLAAWQELTAAAFDPPERRDGLLEVDQLVIDYEKGNPAQALMYMGWIASRLGWQPVSYRCEGGEYDLRQIEFRTEDDRMVKVELAGIPVGDPGLVLGDLIALRLTSENPDADCCTILCSETTGCMRMEAGGGAQSCRTEQVAPPSNETSESLLAMQMQRWGRDALYEESLAVIAVALRQRTHA, MGSDKIHHHHHHMTTFHDLPLEERLTLARLGTSHYSRQLSLVDNAEFGEHSLLEGWTRSHLIAHVAYNAIALCNLMHWANTGEETPMYVSPEARNEEIAYGSTLNPDALRNLHEHSVARLDVAWRETSEDAWSHEVLTAQGRTVPASETLWMRSREVWIHAVDLGAVATFGDIPEVILRTLAAEITQKWTSQGAGEGLVLLDEPSSTRYPAAPGQDEVVVSGSLAGIVRYAAGRGSDGVTSSTGEVPEPPRWL, MGSDKIHHHHHHMTTNCVIVSQRYPPEKGGNASRIHDTAVNLGDEFNVTVLAPSLCYPPGNFERTWKRKQTERDEGVIVHRLWTWQPQRENPSLLRRLPYYVIFALHAALWLVVNFRQYDVVMTSTPPITTGFPGLVAAAIGNPWVIDVRDLWIENSIALGYIQADSPLVKAGRTFQRLALHSADRITVTTETLRDAVGDTYGSELRDRVRVVPNGVDTDRFSSVSTPENNDSRIVYTGNIGSAQALEPCIRAMQHVSSDNALLQLVGDGDEVSRLKSVTERLGLEDRVEFVGLVDRERIPEILDSATVGLAPIKDSPELDYAIPTKLYEYMACSLPVVVTGRGEIKRFTTDTDVGIHTEPDPESIAVAIETLLENPEKRVAMGQDGHRVVSEEYDRQAIAGQLGEVFRTLTVTERRESCTTPDPDHD

Source: the DeepSol protein solubility set
